Publication PMC314469, “Protein Interaction Networks by Proteome Peptide Scanning” (PLoS Biology, 2004)

What was measured:
[1] = molecular target: T1, amphyphisin SH3 (AMPH_HUMAN), P49418; assay: SPOT array
T1 chain: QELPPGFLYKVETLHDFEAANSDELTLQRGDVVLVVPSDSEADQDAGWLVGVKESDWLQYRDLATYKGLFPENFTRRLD

[2] = molecular target: endophilin SH3 (SH3G2_HUMAN), Q99962; assay: SPOT array

Binder: REDRFRRPRDEGGW [Q14152 1235-1248]
- normalised SPOT signal, Boehringer light units (BLU); mean over the file's lines of this peptide [1]: 46
- normalised SPOT signal, Boehringer light units (BLU); mean over the file's lines of this peptide [2]: 116

Binder: ATPLPRRPQPRQFF
- normalised SPOT signal, Boehringer light units (BLU); mean over the file's lines of this peptide [1]: 151
- normalised SPOT signal, Boehringer light units (BLU); mean over the file's lines of this peptide [2]: 19900

Binder: REASFKRPVVILGP [O95049 627-640]
- normalised SPOT signal, Boehringer light units (BLU); mean over the file's lines of this peptide [1]: 47.4
- normalised SPOT signal, Boehringer light units (BLU); mean over the file's lines of this peptide [2]: 18.3

Binder: RHLAPNRPSKSRTD [Q9NTH0 93-106]
- normalised SPOT signal, Boehringer light units (BLU); mean over the file's lines of this peptide [1]: 530
- normalised SPOT signal, Boehringer light units (BLU); mean over the file's lines of this peptide [2]: 257

Binder: RGQEFRRPSTLSEL [P13674 520-533]
- normalised SPOT signal, Boehringer light units (BLU); mean over the file's lines of this peptide [1]: 38.7
- normalised SPOT signal, Boehringer light units (BLU); mean over the file's lines of this peptide [2]: 158

Binder: RHLSPRRPVSPGKD [P31629 1496-1509]
- normalised SPOT signal, Boehringer light units (BLU); mean over the file's lines of this peptide [1]: 60.1
- normalised SPOT signal, Boehringer light units (BLU); mean over the file's lines of this peptide [2]: 332

Binder: RFALFKRPKANGVK [Q9GZY5 40-53]
- normalised SPOT signal, Boehringer light units (BLU); mean over the file's lines of this peptide [1]: 19.2
- normalised SPOT signal, Boehringer light units (BLU); mean over the file's lines of this peptide [2]: 13.5

Binder: RGGPPSKPPAPEDE [P48634 419-433]
- normalised SPOT signal, Boehringer light units (BLU); mean over the file's lines of this peptide [1]: 38.6
- normalised SPOT signal, Boehringer light units (BLU); mean over the file's lines of this peptide [2]: 33.5

Binder: ATGTLKRPTSLSRH [Q92619 87-100]
- normalised SPOT signal, Boehringer light units (BLU); mean over the file's lines of this peptide [1]: 32.9
- normalised SPOT signal, Boehringer light units (BLU); mean over the file's lines of this peptide [2]: 23.6

Binder: RILQFPRPVKLEDL [Q9Y2U5 55-68]
- normalised SPOT signal, Boehringer light units (BLU); mean over the file's lines of this peptide [1]: 108
- normalised SPOT signal, Boehringer light units (BLU); mean over the file's lines of this peptide [2]: 119

Binder: RGAQLRRPRHSHPT [Q16360 129-142]
- normalised SPOT signal, Boehringer light units (BLU); mean over the file's lines of this peptide [1]: 53.3
- normalised SPOT signal, Boehringer light units (BLU); mean over the file's lines of this peptide [2]: 40.1

Binder: RKMEIYRPHKATAE [Q92769 50-63]
- normalised SPOT signal, Boehringer light units (BLU); mean over the file's lines of this peptide [1]: 16.3
- normalised SPOT signal, Boehringer light units (BLU); mean over the file's lines of this peptide [2]: 179

Binder: AVAIPNRPPDAVLT [P51659 480-494]
- normalised SPOT signal, Boehringer light units (BLU); mean over the file's lines of this peptide [1]: 49.8
- normalised SPOT signal, Boehringer light units (BLU); mean over the file's lines of this peptide [2]: 79.1

Binder: RDAFLKRPISNKYM [Q9H278 225-238]
- normalised SPOT signal, Boehringer light units (BLU); mean over the file's lines of this peptide [1]: 34.7
- normalised SPOT signal, Boehringer light units (BLU); mean over the file's lines of this peptide [2]: 254

Binder: RKMEIYRPHKANAE [Q13547 49-62]
- normalised SPOT signal, Boehringer light units (BLU); mean over the file's lines of this peptide [1]: 90.1
- normalised SPOT signal, Boehringer light units (BLU); mean over the file's lines of this peptide [2]: 78.7

Binder: RDFIISRPTKLKSL [Q9Y6K5 932-945]
- normalised SPOT signal, Boehringer light units (BLU); mean over the file's lines of this peptide [1]: 108
- normalised SPOT signal, Boehringer light units (BLU); mean over the file's lines of this peptide [2]: 182

Binder: REAGFKRPVVLFGP [Q9UDY2 725-738]
- normalised SPOT signal, Boehringer light units (BLU); mean over the file's lines of this peptide [1]: 24.6
- normalised SPOT signal, Boehringer light units (BLU); mean over the file's lines of this peptide [2]: 23.8

Binder: REVSLKRPLGNSPG [P17036 132-145]
- normalised SPOT signal, Boehringer light units (BLU); mean over the file's lines of this peptide [1]: 39.7
- normalised SPOT signal, Boehringer light units (BLU); mean over the file's lines of this peptide [2]: 55.7

Binder: RGIQFKRPHTVAPW [O43561 47-60]
- normalised SPOT signal, Boehringer light units (BLU); mean over the file's lines of this peptide [1]: 35.2
- normalised SPOT signal, Boehringer light units (BLU); mean over the file's lines of this peptide [2]: 28.6

Binder: RIIAFSRPVKYEDV [Q99759 56-69]
- normalised SPOT signal, Boehringer light units (BLU); mean over the file's lines of this peptide [1]: 113
- normalised SPOT signal, Boehringer light units (BLU); mean over the file's lines of this peptide [2]: 79.6

Binder: RGAQLRRPRHSHLT [Q13399 123-136]
- normalised SPOT signal, Boehringer light units (BLU); mean over the file's lines of this peptide [1]: 25.3
- normalised SPOT signal, Boehringer light units (BLU); mean over the file's lines of this peptide [2]: 53.2

Binder: RHWRPWRPDKTKKQ [Q9NWH6 590-603]
- normalised SPOT signal, Boehringer light units (BLU); mean over the file's lines of this peptide [1]: 580
- normalised SPOT signal, Boehringer light units (BLU); mean over the file's lines of this peptide [2]: 568

Binder: RSVRPSRPPRGFQP [O43184 749-763]
- normalised SPOT signal, Boehringer light units (BLU); mean over the file's lines of this peptide [1]: 12400
- normalised SPOT signal, Boehringer light units (BLU); mean over the file's lines of this peptide [2]: 13300

Binder: RAWIPGKPPSPPRG [Q14069 9-23]
- normalised SPOT signal, Boehringer light units (BLU); mean over the file's lines of this peptide [1]: 1950
- normalised SPOT signal, Boehringer light units (BLU); mean over the file's lines of this peptide [2]: 4770

Binder: RHLILKRPGFQEHE [Q96JB4 119-132]
- normalised SPOT signal, Boehringer light units (BLU); mean over the file's lines of this peptide [1]: 67.7
- normalised SPOT signal, Boehringer light units (BLU); mean over the file's lines of this peptide [2]: 128

Binder: RKFSLERPFRPSVT [Q9BXL7 634-647]
- normalised SPOT signal, Boehringer light units (BLU); mean over the file's lines of this peptide [1]: 797
- normalised SPOT signal, Boehringer light units (BLU); mean over the file's lines of this peptide [2]: 105

Binder: RSSFPVRPPTASTI [Q9NPY2 259-273]
- normalised SPOT signal, Boehringer light units (BLU); mean over the file's lines of this peptide [1]: 167
- normalised SPOT signal, Boehringer light units (BLU); mean over the file's lines of this peptide [2]: 3140

Binder: RGGPPPRPPPRQSL [Q9HCU4 2874-2888]
- normalised SPOT signal, Boehringer light units (BLU); mean over the file's lines of this peptide [1]: 17900
- normalised SPOT signal, Boehringer light units (BLU); mean over the file's lines of this peptide [2]: 17200

Binder: RGERLPRPDKSPSE [P29597 1130-1143]
- normalised SPOT signal, Boehringer light units (BLU); mean over the file's lines of this peptide [1]: 3.2
- normalised SPOT signal, Boehringer light units (BLU); mean over the file's lines of this peptide [2]: 116

Binder: RHQRLHRPGRPVPG [Q92657 54-67]
- normalised SPOT signal, Boehringer light units (BLU); mean over the file's lines of this peptide [1]: 11.8
- normalised SPOT signal, Boehringer light units (BLU); mean over the file's lines of this peptide [2]: 64.3

Binder: RSWVLRRPMLAAAG [P36776 15-28]
- normalised SPOT signal, Boehringer light units (BLU); mean over the file's lines of this peptide [1]: 19
- normalised SPOT signal, Boehringer light units (BLU); mean over the file's lines of this peptide [2]: 412

Binder: REAALERPRRTKRE [Q96LA8 29-42]
- normalised SPOT signal, Boehringer light units (BLU); mean over the file's lines of this peptide [1]: 2500
- normalised SPOT signal, Boehringer light units (BLU); mean over the file's lines of this peptide [2]: 330

Binder: RHPRPRRPGGPALR [Q9H7T3 112-125]
- normalised SPOT signal, Boehringer light units (BLU); mean over the file's lines of this peptide [1]: 92.1
- normalised SPOT signal, Boehringer light units (BLU); mean over the file's lines of this peptide [2]: 266

Binder: RGDDLRRPATMKGK [Q96T37 35-48]
- normalised SPOT signal, Boehringer light units (BLU); mean over the file's lines of this peptide [1]: 30
- normalised SPOT signal, Boehringer light units (BLU); mean over the file's lines of this peptide [2]: 144

Binder: RHASPARPPAARSQ [Q96JG1 528-542]
- normalised SPOT signal, Boehringer light units (BLU); mean over the file's lines of this peptide [1]: 434
- normalised SPOT signal, Boehringer light units (BLU); mean over the file's lines of this peptide [2]: 4680

Binder: RDLIFKRPSRQFQY [Q92797 568-581]
- normalised SPOT signal, Boehringer light units (BLU); mean over the file's lines of this peptide [1]: 5070
- normalised SPOT signal, Boehringer light units (BLU); mean over the file's lines of this peptide [2]: 190

Binder: RGFLPYRPPRPAFF [Q96RT6 725-739]
- normalised SPOT signal, Boehringer light units (BLU); mean over the file's lines of this peptide [1]: 7280
- normalised SPOT signal, Boehringer light units (BLU); mean over the file's lines of this peptide [2]: 13700

Binder: ATPLPRRPQPRDLG
- normalised SPOT signal, Boehringer light units (BLU); mean over the file's lines of this peptide [1]: 132
- normalised SPOT signal, Boehringer light units (BLU); mean over the file's lines of this peptide [2]: 6070

Binder: REKKPPRPPKKKYQ [Q9NR48 1976-1990]
- normalised SPOT signal, Boehringer light units (BLU); mean over the file's lines of this peptide [1]: 56.2
- normalised SPOT signal, Boehringer light units (BLU); mean over the file's lines of this peptide [2]: 6480

Binder: RELDLSRPSRSISL [Q12879 1300-1313]
- normalised SPOT signal, Boehringer light units (BLU); mean over the file's lines of this peptide [1]: 3150
- normalised SPOT signal, Boehringer light units (BLU); mean over the file's lines of this peptide [2]: 98.7

Binder: RHPKPLKPPWHLSM [P41215 45-59]
- normalised SPOT signal, Boehringer light units (BLU); mean over the file's lines of this peptide [1]: 76.6
- normalised SPOT signal, Boehringer light units (BLU); mean over the file's lines of this peptide [2]: 3220

Binder: RAVDLRRPLLHELL [Q9NXT9 123-136]
- normalised SPOT signal, Boehringer light units (BLU); mean over the file's lines of this peptide [1]: 114
- normalised SPOT signal, Boehringer light units (BLU); mean over the file's lines of this peptide [2]: 67.7
